Test results taken from the RNAGym collection of RNA variant scans (doi:10.7554/elife.80360).

B1: HDV Ribozyme (parent)
chain: GGCCGGCAUGGUCCCAGCCUCCUCGCUGGCGCCGGCUGGGCAACAUUCCGAGGGGACCGUCCCCUCGGUAAUGGCGAAUGGGACCCA

Variants of: B1
Experiment: self-cleavage, relative activity (ratio to wild type); higher = more cleavage; co-transcriptional

Compared with GACCGGCAUGGUCCCAGCCUCCUCGCUGUCGCCGGCUGGGCAACAUUCCGAGGGGACCGUCCCCUCGGUAAUGGCGAAUGGGACCCA [G2A G29U], GGCCGGCAUGGUCCCAGCCUCCACGCUGGCGCCUGCUGGGCAACAUUCCGAGGGGACCGUCCCCUCGGUAAUGGCGAAUGGGACCCA [U23A G34U] is higher in self-cleavage: 0.0205 for the first, 0.149 for the second.

First: GGCCGGCAUGGUCCCAGGCUCCACGCUGGCGCCGGCUGGGCAACAUUCCGAGGGGACCGUCCCCUCGGUAAUGGCGAAUGGGACCCA [C18G U23A]
Second: GGCCGGCAUGGUCCCAGCCUCCUCGCUGGCGCCGGCUGGGCAACAUUCCGCGGGGACCGUCCCAUCGGUAAUGGCGAAUGGGACCCA [A51C C64A]
The self-cleavage of the first is lower: 0 for the first, 0.764 for the second.

Going from GGCCGGCAUGGUCCCAGCCUCCUAGCUGGCGCCGGCUGGGCAACAUUGCGAGGGGACCGUCCCCUCGGUAAUGGCGAAUGGGACCCA [C24A C48G] to GGCCGGCAUGGUCACAGCCUCCUCGCUGGCGCCGGCUGGGCAACAUUCCGAGGGGACCGUCCCCUCGGUAAUGGCGAAUGGGACCCA [C14A], the self-cleavage rises from 0.47 to 0.761.

Compared with GGCCGGCAUGGUCCCAGCCUCCUCGCUGGCGCCCGCUGGGCAACAUUCCGAGGGGACCGUCCCCUCGGUAAUGGUGAAUGGGACCCA [G34C C75U], GGCCGGCAUGGUCCCAGCCUCCUAGCUGGCGCCGGCUGGGCAACAUUCCGAGGGGACCGUCCCCUCAGUAAUGGCGAAUGGGACCCA [C24A G67A] is higher in self-cleavage: 0.0405 for the first, 0.802 for the second.

First: GGCCGACAGGGUCCCAGCCUCCUCGCUGGCGCCGGCUGGGCAACAUUCCGAGGGGACCGUCCCCUCGGUAAUGGCGAAUGGGACCCA [G6A U9G]
Second: GGCCGGCAUGGUCGCAGCGUCCUCGCUGGCGCCGGCUGGGCAACAUUCCGAGGGGACCGUCCCCUCGGUAAUGGCGAAUGGGACCCA [C14G C19G]
The self-cleavage of the first is higher: 0.653 for the first, 0.0449 for the second.

Compared with GGCCGGCAUGGUCCCAGCCACCUCGCUGGCGCCGGCUGGGCAACAUUCCGAGGGGACCGUCCCCUCGGUAAUGGCGAAUCGGACCCA [U20A G80C], GGCCGGCAUGGUCCCAGCCUCCUCGCUGGCGCCUGCUGGGCACCAUUCCGAGGGGACCGUCCCCUCGGUAAUGGCGAAUGGGACCCA [G34U A43C] is higher in self-cleavage: 0.0992 for the first, 0.243 for the second.

Going from GGCCGGCAUGGUCCCAGCCUCCUCGCUGGCGCCGGCUGGGCAACAUUCCGAGGGGACCGUCCCCUCGGUAAUGAAGAAUGGGACCCA [G74A C75A] to GGCCGGCAUGGUCCCAGCCUCCCCCCUGGCGCCGGCUGGGCAACAUUCCGAGGGGACCGUCCCCUCGGUAAUGGCGAAUGGGACCCA [U23C G25C], the self-cleavage rises from 0.0528 to 0.138.

Compared with GGCCGGCAUGGUCCCAGCCUCCCCGCUGGCGCCGGCUGGGCAACAUUCGGAGGGGACCGUCCCCUCGGUAAUGGCGAAUGGGACCCA [U23C C49G], GGCCGGCAUGGUCCCAGCCUCCUCGCUGGCGCCGGCUGGGCAACAUUGCGAGGGGACCGUCCCCGCGGUAAUGGCGAAUGGGACCCA [C48G U65G] is lower in self-cleavage: 0.655 for the first, 0.504 for the second.

Compared with GGCCGCCAUGGUCCCAGCCUCCUCGCUGGCGCCGGCUGGGAAACAUUCCGAGGGGACCGUCCCCUCGGUAAUGGCGAAUGGGACCCA [G6C C41A], GGCCGGCUUGGUCCCAGCCUUCUCGCUGGCGCCGGCUGGGCAACAUUCCGAGGGGACCGUCCCCUCGGUAAUGGCGAAUGGGACCCA [A8U C21U] is higher in self-cleavage: 0 for the first, 0.147 for the second.

Compared with GGCCGGCAUGGGCCCAGCCUCCUCGCUGGCGCCGGCUGGGCAACAUUCCGAGGGGACCGUCCCCUCGGUAAUGGCGAAUGGGAACCA [U12G C84A], GGCCGGCAUGGUCCCAGCCUCCUCGCUGCCGCCGGCUGGGCAACAUUCGGAGGGGACCGUCCCCUCGGUAAUGGCGAAUGGGACCCA [G29C C49G] is lower in self-cleavage: 0.665 for the first, 0 for the second.

Going from GGCCGGCAUGGACCCAGCCUCAUCGCUGGCGCCGGCUGGGCAACAUUCCGAGGGGACCGUCCCCUCGGUAAUGGCGAAUGGGACCCA [U12A C22A] to GGCCGGCAUGGUCCCAGCCUCCUCGCUGGCGCCGGCCGGGCAACAUUCCGAGGGGACCGUCCCCUCGGUAAUGGCGAAUGGGACGCA [U37C C85G], the self-cleavage rises from 0 to 0.95.

First: GGCCAGCAUGGUCCCAGCCUCCUCGCUGGCGACGGCUGGGCAACAUUCCGAGGGGACCGUCCCCUCGGUAAUGGCGAAUGGGACCCA [G5A C32A]
Second: GGCCGGCAUGGUCCCAGCCUCCUCGCUGGCGCCGGCUGGGCAACAUUCCGAGGGGACCGGCACCUCGGUAAUGGCGAAUGGGACCCA [U60G C62A]
The self-cleavage of the first is lower: 0 for the first, 0.886 for the second.

Going from GGCCGGCAUGGUCCCAGCCUCCUCGCUGGCGCCGGCAGGGCAACAUUCCGAGGGGACCGUCCACUCGGUAAUGGCGAAUGGGACCCA [U37A C63A] to GGCCGGCAUGGUCCCAGCCUCCUCGCUGGCGCCGGCUGGGCAACAUUCUGAGGGGACCGUCCCCUCGGUAAUGUCGAAUGGGACCCA [C49U G74U], the self-cleavage rises from 0.116 to 0.507.

Going from GGCCGGGAUGGUCCCAGCCUCCUCGCUGGCGCCGGCUGGGCAACAUUCCGAGGGGACAGUCCCCUCGGUAAUGGCGAAUGGGACCCA [C7G C58A] to GGCCGGCAUGGUCCCAGCCUCCUCGCUCGCGCCGGCUGCGCAACAUUCCGAGGGGACCGUCCCCUCGGUAAUGGCGAAUGGGACCCA [G28C G39C], the self-cleavage falls from 0.506 to 0.

Going from GGCCGGCAUGGUCCCAGCCUCCUCGCUGGCGCCGGCUGGGCAACAUUCCGAGGGGACCGUCCUCUCGGUAAUGGCGAAUGGUACCCA [C63U G82U] to GGCCGGCAUGGUGCCAGCCUCCUCGCUGGCGCCGGCUGGGCAACAUUCCGAGGUGACCGUCCCCUCGGUAAUGGCGAAUGGGACCCA [C13G G54U], the self-cleavage falls from 0.509 to 0.0282.

Going from GGCCGGCAUGGUCCCAGCCUCCUCGCUGGCGCCGGCUAGGCGACAUUCCGAGGGGACCGUCCCCUCGGUAAUGGCGAAUGGGACCCA [G38A A42G] to GGCCGGCAUGGACCCAGCCUCCUCGCUGGCGCCGGCUGGGCAACAUUCCGAGGGGACCGUCCCCUCGGUAAUGGCGCAUGGGACCCA [U12A A77C], the self-cleavage falls from 0.095 to 0.0755.
